Experimental data reported in patent US20220308072A1.

How the values were obtained:
[1] = molecular target: Recombinant, his tagged full length human frataxin protein (Abcam ab95502) (human) (UniProt Q16595); assay: Simoa sandwich 2-step; capture Ab-3; frataxin 55.6 pg/mL
[2] = molecular target: Recombinant, his tagged full length human frataxin protein (Abcam ab95502) (human) (UniProt Q16595); assay: Simoa sandwich 3-step; capture Ab-2
[3] = molecular target: Recombinant, his tagged full length human frataxin protein (Abcam ab95502) (human) (UniProt Q16595); assay: Simoa sandwich 3-step; capture Ab-3; frataxin 1000 pg/mL
[4] = molecular target: Recombinant, his tagged full length human frataxin protein (Abcam ab95502) (human) (UniProt Q16595); assay: Simoa sandwich 3-step; capture Ab-3
[5] = molecular target: Recombinant, his tagged full length human frataxin protein (Abcam ab95502) (human) (UniProt Q16595); assay: Simoa sandwich 3-step; capture Ab-2; frataxin 100 pg/mL
[6] = molecular target: Recombinant, his tagged full length human frataxin protein (Abcam ab95502) (human) (UniProt Q16595); assay: Simoa sandwich 3-step; capture Ab-2; frataxin 1000 pg/mL
[7] = molecular target: Recombinant, his tagged full length human frataxin protein (Abcam ab95502) (human) (UniProt Q16595); assay: Simoa sandwich 2-step; capture Ab-3; frataxin 2.06 pg/mL
[8] = molecular target: Recombinant, his tagged full length human frataxin protein (Abcam ab95502) (human) (UniProt Q16595); assay: Simoa sandwich 3-step; capture Ab-1
[9] = molecular target: Recombinant, his tagged full length human frataxin protein (Abcam ab95502) (human) (UniProt Q16595); assay: Simoa sandwich 2-step; capture Ab-3; frataxin 6.17 pg/mL
[10] = molecular target: Recombinant, his tagged full length human frataxin protein (Abcam ab95502) (human) (UniProt Q16595); assay: Simoa sandwich 3-step; capture Ab-3; frataxin 100 pg/mL
[11] = molecular target: Recombinant, his tagged full length human frataxin protein (Abcam ab95502) (human) (UniProt Q16595); assay: Simoa sandwich 3-step; capture Ab-3; remark: listed apart in the source
[12] = molecular target: Recombinant, his tagged full length human frataxin protein (Abcam ab95502) (human) (UniProt Q16595); assay: Simoa sandwich 2-step; capture Ab-3; frataxin 500 pg/mL
[13] = molecular target: Recombinant, his tagged full length human frataxin protein (Abcam ab95502) (human) (UniProt Q16595); assay: Simoa sandwich 3-step; capture Ab-1; frataxin 1000 pg/mL
[14] = molecular target: Recombinant, his tagged full length human frataxin protein (Abcam ab95502) (human) (UniProt Q16595); assay: Simoa sandwich 3-step; capture Ab-5
[15] = molecular target: Recombinant, his tagged full length human frataxin protein (Abcam ab95502) (human) (UniProt Q16595); assay: Simoa sandwich 3-step; capture Ab-3; frataxin 1000 pg/mL; remark: listed apart in the source
[16] = molecular target: Recombinant, his tagged full length human frataxin protein (Abcam ab95502) (human) (UniProt Q16595); assay: Simoa sandwich 2-step; capture Ab-3; frataxin 1000 pg/mL
[17] = molecular target: Recombinant, his tagged full length human frataxin protein (Abcam ab95502) (human) (UniProt Q16595); assay: Simoa sandwich 3-step; capture Ab-4; frataxin 10000 pg/mL
[18] = molecular target: Recombinant, his tagged full length human frataxin protein (Abcam ab95502) (human) (UniProt Q16595); assay: Simoa sandwich 3-step; capture Ab-1; frataxin 100 pg/mL
[19] = molecular target: Recombinant, his tagged full length human frataxin protein (Abcam ab95502) (human) (UniProt Q16595); assay: Simoa sandwich 2-step; capture Ab-3; frataxin 18.5 pg/mL
[20] = molecular target: Recombinant, his tagged full length human frataxin protein (Abcam ab95502) (human) (UniProt Q16595); assay: Simoa sandwich 3-step; capture Ab-1; frataxin 10000 pg/mL
[21] = molecular target: Recombinant, his tagged full length human frataxin protein (Abcam ab95502) (human) (UniProt Q16595); assay: Simoa sandwich 2-step; capture Ab-3
[22] = molecular target: Recombinant, his tagged full length human frataxin protein (Abcam ab95502) (human) (UniProt Q16595); assay: Simoa sandwich 3-step; capture Ab-5; frataxin 1000 pg/mL
[23] = molecular target: Recombinant, his tagged full length human frataxin protein (Abcam ab95502) (human) (UniProt Q16595); assay: Simoa sandwich 3-step; capture Ab-2; frataxin 10000 pg/mL
[24] = molecular target: Recombinant, his tagged full length human frataxin protein (Abcam ab95502) (human) (UniProt Q16595); assay: Simoa sandwich 2-step; capture Ab-3; frataxin 0.686 pg/mL
[25] = molecular target: Recombinant, his tagged full length human frataxin protein (Abcam ab95502) (human) (UniProt Q16595); assay: Simoa sandwich 3-step; capture Ab-4; frataxin 100 pg/mL
[26] = molecular target: Recombinant, his tagged full length human frataxin protein (Abcam ab95502) (human) (UniProt Q16595); assay: Simoa sandwich 3-step; capture Ab-5; frataxin 100 pg/mL
[27] = molecular target: Recombinant, his tagged full length human frataxin protein (Abcam ab95502) (human) (UniProt Q16595); assay: Simoa sandwich 3-step; capture Ab-4; frataxin 1000 pg/mL
[28] = molecular target: Recombinant, his tagged full length human frataxin protein (Abcam ab95502) (human) (UniProt Q16595); assay: Simoa sandwich 2-step; capture Ab-3; remark: listed apart in the source
[29] = molecular target: Recombinant, his tagged full length human frataxin protein (Abcam ab95502) (human) (UniProt Q16595); assay: Simoa sandwich 2-step; capture Ab-3; frataxin 167 pg/mL
[30] = molecular target: Recombinant, his tagged full length human frataxin protein (Abcam ab95502) (human) (UniProt Q16595); assay: Simoa sandwich 2-step; capture Ab-3; frataxin 100 pg/mL
[31] = molecular target: Recombinant, his tagged full length human frataxin protein (Abcam ab95502) (human) (UniProt Q16595); assay: Simoa sandwich 3-step; capture Ab-3; frataxin 100 pg/mL; remark: listed apart in the source
[32] = molecular target: Recombinant, his tagged full length human frataxin protein (Abcam ab95502) (human) (UniProt Q16595); assay: Simoa sandwich 3-step; capture Ab-4

UniProt Q16595, sequence (Q16595 42-210): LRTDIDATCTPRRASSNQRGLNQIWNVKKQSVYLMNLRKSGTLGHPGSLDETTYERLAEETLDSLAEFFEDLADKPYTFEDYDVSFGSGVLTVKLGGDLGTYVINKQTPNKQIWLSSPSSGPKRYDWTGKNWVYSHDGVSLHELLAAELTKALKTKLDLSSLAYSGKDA

Ab-4, mouse monoclonal [17A11] to Frataxin (Abcam ab113691) (antibody)
Ave AEB [1]: 3.75 AEB
S/B [1]: 32.6
LOD [2]: 5.01 pg/mL
Ave AEB [3]: 12.8 AEB
S/B [3]: 160
LOD [4]: 2.41 pg/mL
Ave AEB [5]: 1.02 AEB
S/B [5]: 5.67
Ave AEB [6]: 7.32 AEB
S/B [6]: 40.7
Ave AEB [7]: 0.259 AEB
S/B [7]: 2.25
LOD [8]: 23.9 pg/mL
Ave AEB [9]: 0.56 AEB
S/B [9]: 4.87
Ave AEB [10]: 1.34 AEB
S/B [10]: 16.8
LOD [11]: 1.59 pg/mL
Ave AEB [12]: 23.7 AEB
S/B [12]: 206
Ave AEB [13]: 8.74 AEB
S/B [13]: 39.6
LOD [14]: 6.44 pg/mL
Ave AEB [15]: 8.02 AEB
S/B [15]: 138
Ave AEB [16]: 29.7 AEB
S/B [16]: 394
Ave AEB [17]: 0.82 AEB
S/B [17]: 35.6
Ave AEB [18]: 0.64 AEB
S/B [18]: 2.9
Ave AEB [19]: 1.31 AEB
S/B [19]: 11.4
Ave AEB [20]: 30.9 AEB
S/B [20]: 140
LOD [21]: 0.36 pg/mL
Ave AEB [22]: 18.6 AEB
S/B [22]: 45.4
Ave AEB [23]: 32.9 AEB
S/B [23]: 183
Ave AEB [24]: 0.157 AEB
S/B [24]: 1.36
Ave AEB [25]: 0.0213 AEB
S/B [25]: 0.93
Ave AEB [26]: 2.02 AEB
S/B [26]: 4.93
Ave AEB [27]: 0.0589 AEB
S/B [27]: 2.55
LOD [28]: 0.44 pg/mL
Ave AEB [29]: 11.1 AEB
S/B [29]: 97
Ave AEB [30]: 5.1 AEB
S/B [30]: 67.6
Ave AEB [31]: 0.68 AEB
S/B [31]: 11.7
LOD [32]: 358 pg/mL
